Data from article PMC9228748, “The Denaturant- and Mutation-Induced Disassembly of Pseudomonas aeruginosa Hexameric Hfq Y55W Mutant” (Molecules, 2022).
Several values for one entry are separate records, joined by “and”; a condition that tells them apart may be missing. Equal values may be shown once.

Key:
[1] = molecular target: the molecule itself; assay: dynamic light scattering; pH 1.4, 100 µM protein (monomer), 25 °C
[2] = molecular target: the molecule itself; assay: crystal structure; hanging drop vapor diffusion at 25 °C; 7% PEG 2000 MME, 2% MPD, 50 mM Tris-HCl pH 6.5; asymmetric part holds three subunits, hexamer by crystallographic symmetry

B1: Pseudomonas aeruginosa Hfq Y55W mutant (natural protein)
chain: MSKGHSLQDPYLNTLRKERVPVSIYLVNGIKLQGQIESFDQFVILLKNTVSQMVWKHAISTVVPSRPVRLPSGDQPAEPGNA
notes: also called Y55W (hexamer); Pae Hfq Y55W
stoichiometry N [1]: 3 and 2 | stoichiometry N [2]: 6
